Test results from patent US20190177437A1 (SINGH MOLECULAR MEDICINE, published 2019).

B1: anti-TNF-α VHH62 (SEQ ID NO:47) sdAb (VHH)
VHH: QVQLVESGGGPVQAGETLRLSCTASGFTFAEADMGWYRQAPGHECELVSTITTEGITSEASSYYADSVRGRFTISRDNAKNMVYLQMNSLKPEDTAVYYCAPDPYAYSTYSDYCSWAQGTQGTLVTVSS
B2: anti-TNF-α VHH69 (SEQ ID NO:46) sdAb (VHH)
VHH: EVQLVESGGGSVLAGGSLRLSCVASGFTSRYNYMAWFRQAPGKEREGVATIGTASGSADYYGSVKDRFTISQDNAKNTVYLQMNSLKPEDTAMYYCAARTYGTISLTPSDYRYWGQGTLVTVSS

Key:
[1] = target: T1, active human TNF-α full length protein (human, UniProt P01375 77-233); experiment: ELISA, TNF coat 0.5 µg/mL, sdAb 1 µg/mL, anti-llama 1:5,000, HRP 1:25,000
[2] = target: T1, active human TNF-α full length protein; experiment: ELISA, TNF coat 0.5 µg/mL, sdAb 1 µg/mL, anti-llama 1:5,000, HRP 1:50,000
[3] = target: T1, active human TNF-α full length protein; experiment: ELISA, TNF coat 0.25 µg/mL, sdAb 1 µg/mL, anti-llama 1:5,000, HRP 1:25,000
[4] = target: T1, active human TNF-α full length protein; experiment: ELISA, TNF coat 0.25 µg/mL, sdAb 1 µg/mL, anti-llama 1:5,000, HRP 1:50,000
[5] = target: T1, active human TNF-α full length protein; experiment: ELISA, TNF coat 0.5 µg/mL, sdAb 1 µg/mL, anti-llama 1:10,000, HRP 1:25,000
[6] = target: T1, active human TNF-α full length protein; experiment: ELISA, TNF coat 0.5 µg/mL, sdAb 1 µg/mL, anti-llama 1:10,000, HRP 1:50,000
[7] = target: T1, active human TNF-α full length protein; experiment: ELISA, TNF coat 0.125 µg/mL, sdAb 1 µg/mL, anti-llama 1:5,000, HRP 1:25,000
[8] = target: T1, active human TNF-α full length protein; experiment: ELISA, TNF coat 0.125 µg/mL, sdAb 1 µg/mL, anti-llama 1:5,000, HRP 1:50,000
[9] = target: T1, active human TNF-α full length protein; experiment: ELISA, TNF coat 0.25 µg/mL, sdAb 1 µg/mL, anti-llama 1:10,000, HRP 1:25,000
[10] = target: T1, active human TNF-α full length protein; experiment: ELISA, TNF coat 0.25 µg/mL, sdAb 1 µg/mL, anti-llama 1:10,000, HRP 1:50,000
[11] = target: T1, active human TNF-α full length protein; experiment: ELISA, TNF coat 0.125 µg/mL, sdAb 1 µg/mL, anti-llama 1:10,000, HRP 1:25,000
[12] = target: T1, active human TNF-α full length protein; experiment: ELISA, TNF coat 0.125 µg/mL, sdAb 1 µg/mL, anti-llama 1:10,000, HRP 1:50,000
[13] = target: T1, active human TNF-α full length protein

T1 sequence (P01375 77-233 limits assumed): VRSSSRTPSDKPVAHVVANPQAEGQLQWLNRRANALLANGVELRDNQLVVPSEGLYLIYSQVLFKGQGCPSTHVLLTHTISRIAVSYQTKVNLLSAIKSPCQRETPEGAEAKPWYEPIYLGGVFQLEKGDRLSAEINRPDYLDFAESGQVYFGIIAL

Binder | Signal/Noise Ratio [1] | Signal/Noise Ratio [2] | Signal/Noise Ratio [3] | Signal/Noise Ratio [4] | Signal/Noise Ratio [5] | Signal/Noise Ratio [6] | Signal/Noise Ratio [7] | Signal/Noise Ratio [8] | Signal/Noise Ratio [9] | Signal/Noise Ratio [10] | Signal/Noise Ratio [11] | Signal/Noise Ratio [12] | binding result [13]
B1 | 2 ratio | 1.9 ratio | 1.5 ratio | 1.4 ratio | 1.7 ratio | 1.5 ratio | 1.1 ratio | 1.1 ratio | 1.4 ratio | 1.3 ratio | 1.1 ratio | 0.9 ratio | no binding (tested: 1 µg/mL)
B2 | 8 ratio | 7.5 ratio | 3.2 ratio | 2.4 ratio | 5.9 ratio | 3.7 ratio | 1.6 ratio | 1.6 ratio | 2.1 ratio | 1.9 ratio | 1.5 ratio | 1.3 ratio | –
